# Key:
# [1] = target: T1, hMPV136 (hMPV B, UniProt Q6WB98 19-102); experiment: BLI, no stress
# T1 construct: A140C-S149C, A459P
# [2] = target: T2, hMPV129 (hMPV B, UniProt Q6WB98 19-102); experiment: BLI, no stress
# T2 construct: T49I, A140C-S149C, G239A, T365I, T411C-Q434C, A459P
# [3] = target: T3, hMPV120 (hMPV B, UniProt Q6WB98 19-102); experiment: BLI, no stress
# T3 construct: A140C-S149C, T411C-Q434C
# [4] = target: T4, hMPV137 (hMPV B, UniProt Q6WB98 19-102); experiment: BLI, no stress
# T4 construct: T49I, A140C-S149C
# [5] = target: T5, hMPV133 (hMPV B, UniProt Q6WB98 19-102); experiment: BLI, no stress
# T5 construct: T49I, L141C-A161C, S149T, G239A, T411C-Q434C, A459P
# [6] = target: T6, hMPV118 (hMPV B, UniProt Q6WB98 19-102); experiment: BLI, no stress
# T6 construct: T49I, T150C-R156C
# [7] = target: T7, hMPV135 (hMPV B, UniProt Q6WB98 19-102); experiment: BLI, no stress
# T7 construct: T49I, S149T, A459P
# [8] = target: T8, hMPV053 (hMPV A, UniProt Q6WB98 19-102); experiment: BLI, 53C stress
# T8 construct: L110P
# Experimental: (§1) The OCTET HTX (Sartorius, Gottingen, Germany) instrument was used to evaluate the expression and conformational integrity for each mutant. All measurements were conducted at 30° C. temperature in 96-well black plates (Corning, Corning, NY) with a final volume of 240 μL per well at a constant agitation rate of 1000 RPM.
# (§2) Conformation integrity of hMPV A F protein mutants were evaluated by thermal stress experiments. Crude cell culture supernatants were normalized based on the results of the titer quantitation and then incubated for 1 hour at room temperature and two higher temperatures. […] Anti-Human IgG Fc Capture (AHC) biosensors were first equilibrated in PB before being dipped into more PB to establish the initial baseline. […] The mAb-bound biosensors were then dipped into the thermal stressed cell culture supernatants for 5 minutes. The kinetics analysis was done by OCTET data analysis software (version 12.0, Sartorius) based on curve fitting of the entire associate step.
# [9] = target: T9, hMPV049 (hMPV A, UniProt Q6WB98 19-102); experiment: BLI, 53C stress
# T9 construct: E146C-T160C
# Experimental: as §1, §2
# [10] = target: T10, hMPV054 (hMPV A, UniProt Q6WB98 19-102); experiment: BLI, 53C stress
# T10 construct: S132P
# Experimental: as §1, §2
# [11] = target: T11, hMPV062 (hMPV A, UniProt Q6WB98 19-102); experiment: BLI, 53C stress
# T11 construct: G121A
# Experimental: as §1, §2
# [12] = target: T12, hMPV046 (hMPV A, UniProt Q6WB98 19-102); experiment: BLI, 53C stress
# T12 construct: A140C-S149C
# Experimental: as §1, §2
# [13] = target: T13, hMPV043 (hMPV A, UniProt Q6WB98 19-102); experiment: BLI, 53C stress
# T13 construct: G366C-D454C
# Experimental: as §1, §2
# [14] = target: T14, hMPV066 (hMPV A, UniProt Q6WB98 19-102); experiment: BLI, 53C stress
# T14 construct: T49I
# Experimental: as §1, §2
# [15] = target: T15, hMPV071 (hMPV A, UniProt Q6WB98 19-102); experiment: BLI, 53C stress
# T15 construct: T365I
# Experimental: as §1, §2
# [16] = target: T16, hMPV048 (hMPV A, UniProt Q6WB98 19-102); experiment: BLI, 53C stress
# T16 construct: L141C-A161C
# Experimental: as §1, §2
# [17] = target: T17, hMPV047 (hMPV A, UniProt Q6WB98 19-102); experiment: BLI, 53C stress
# T17 construct: L141C-A159C
# Experimental: as §1, §2
# [18] = target: T18, hMPV075 (hMPV A, UniProt Q6WB98 19-102); experiment: BLI, 53C stress
# T18 construct: L473F
# Experimental: as §1, §2
# [19] = target: T19, hMPV050 (hMPV A, UniProt Q6WB98 19-102); experiment: BLI, 53C stress
# T19 construct: V148C-L158C
# Experimental: as §1, §2
# [20] = target: T20, hMPV061 (hMPV A, UniProt Q6WB98 19-102); experiment: BLI, 53C stress
# T20 construct: G106A
# Experimental: as §1, §2
# [21] = target: T21, hMPV063 (hMPV A, UniProt Q6WB98 19-102); experiment: BLI, 53C stress
# T21 construct: G239A
# Experimental: as §1, §2
# [22] = target: T22, hMPV052 (hMPV A, UniProt Q6WB98 19-102); experiment: BLI, 53C stress
# T22 construct: L66P
# Experimental: as §1, §2
# [23] = target: hMPV A F WT Control (hMPV A, UniProt Q6WB98 19-102); experiment: BLI, 53C stress
# Experimental: as §1, §2
# [24] = target: T23, hMPV059 (hMPV A, UniProt Q6WB98 19-102); experiment: BLI, 53C stress
# T23 construct: V449P
# Experimental: as §1, §2
# [25] = target: T24, hMPV055 (hMPV A, UniProt Q6WB98 19-102); experiment: BLI, 53C stress
# T24 construct: N145P
# Experimental: as §1, §2
# [26] = target: T25, hMPV060 (hMPV A, UniProt Q6WB98 19-102); experiment: BLI, 53C stress
# T25 construct: A459P
# Experimental: as §1, §2
# [27] = target: T26, hMPV067 (hMPV A, UniProt Q6WB98 19-102); experiment: BLI, 53C stress
# T26 construct: S149T
# Experimental: as §1, §2
# [28] = target: T27, PIV1023 (PIV1); experiment: BLI, 53C stress;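 further: binding of thermally stressed PIV1 F mutant supernatant to mAb on AHC biosensors for 5 min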
# T27 construct: A466L
# Experimental: (§3) All measurements were conducted at 30° C. temperature in 96-well black plates (Corning, Corning, NY) with a final volume of 240 μL per well at a constant agitation rate of 1000 RPM.
# (§4) Conformation integrity of PIV1 F protein mutants were evaluated by a thermal stress experiment. Crude cell culture supernatants were normalized based on the results of the titer quantitation and then incubated for 1 hour at room temperature and two higher temperatures. For the initial testing of PIV1 mutants, the two temperatures were 50° C. and 53° C. […] Anti-Human IgG Fc Capture (AHC) biosensors were first equilibrated in PB for before being dipped into more PB to establish the initial baseline. […] The mAb-bound biosensors were then dipped into the thermal stresses cell culture supernatants for 5 minutes.
# [29] = target: T28, PIV1027 (PIV1); experiment: BLI, 53C stress;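 further: binding of thermally stressed PIV1 F mutant supernatant to mAb on AHC biosensors for 5 min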
# T28 construct: S473L
# Experimental: as §3, §4
# [30] = target: T29, PIV1014 (PIV1); experiment: BLI, 53C stress;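 further: binding of thermally stressed PIV1 F mutant supernatant to mAb on AHC biosensors for 5 min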
# T29 construct: Q92C-G134C
# Experimental: as §3, §4
# [31] = target: T30, PIV1026 (PIV1); experiment: BLI, 53C stress;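 further: binding of thermally stressed PIV1 F mutant supernatant to mAb on AHC biosensors for 5 min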
# T30 construct: S473V
# Experimental: as §3, §4
# [32] = target: T31, PIV1024 (PIV1); experiment: BLI, 53C stress
# T31 construct: A466V
# Experimental: as §3, §4
# [33] = target: T32, PIV1031 (PIV1); experiment: BLI, 53C stress
# T32 construct: A466L, S473L
# Experimental: as §3, §4
# [34] = target: T33, PIV1036 (PIV1); experiment: BLI, 53C stress
# T33 construct: G134A
# Experimental: as §3, §4
# [35] = target: T34, PIV1028 (PIV1); experiment: BLI, 53C stress
# T34 construct: A480L
# Experimental: as §3, §4
# [36] = target: T35, PIV1030 (PIV1); experiment: BLI, 53C stress
# T35 construct: A466L, S473A
# Experimental: as §3, §4
# [37] = target: T36, PIV1039 (PIV1); experiment: BLI, 53C stress
# T36 construct: A128P
# Experimental: as §3, §4
# [38] = target: T37, PIV1033 (PIV1); experiment: BLI, 53C stress
# T37 construct: T198A
# Experimental: as §3, §4
binder,measurement,setting,value
"hMPV-2 mAb (antibody, V domains shown, human IgG1) VH: QVQLQQSGAEVKKPGASVKVSCKASGYTFTSYGISWVRQAPGQGLEWMGWISGYNGNTNYAQTFQGTFTMTTDTSTSTAYMELRRLRSGDTAVYYCARDRYYASGSYNGMDVWGQGTTVTVSS VL: QSALTQPPSASGAPGQRVTVSCSGSSSNVGSSSVYWYQQLPGTAPKLLIYRNNQRPSGVPDRFSGSKSGTSASLAISGLRSEDEADYYCAAWDDSLSGWVFGGGTKLTVLG",Response Shift,[1],0.591 nm
same,Response Shift,[2],0.687 nm
same,Response Shift,[3],0.593 nm
same,Response Shift,[4],0.663 nm
same,Response Shift,[5],0.677 nm
same,Response Shift,[6],0.844 nm
same,Response Shift,[7],0.73 nm
same,Response Shift,[8],0.017 nm
same,Response Shift,[9],-0.011 nm
same,Response Shift,[10],-0.072 nm
same,Response Shift,[11],0.013 nm
same,Response Shift,[12],0.196 nm
same,Response Shift,[13],0.03 nm
same,Response Shift,[14],0.265 nm
same,Response Shift,[15],-0.046 nm
same,Response Shift,[16],-0.059 nm
same,Response Shift,[17],-0.079 nm
same,Response Shift,[18],-0.082 nm
same,Response Shift,[19],-0.032 nm
same,Response Shift,[20],-0.073 nm
same,Response Shift,[21],0.001 nm
same,Response Shift,[22],-0.044 nm
same,Response Shift,[23],-0.026 nm
same,Response Shift,[24],-0.051 nm
same,Response Shift,[25],-0.073 nm
same,Response Shift,[26],-0.045 nm
same,Response Shift,[27],0.184 nm
"PIV1-8 mAb (antibody, V domains shown, human IgG1; also called hPIV1-8 mAb; hPIV1-8) VH: QVQLVQSGAEVKKPGSSVKVSCEASGGTFSNYVISWVRQAPGQGLEWMGGIIPVFATAKYAQKFQGRVTIIADQSTNTAYLELSSLRSDDTAVYFCASVDSGGTWWDAFAIWGQGTMVTVSS VL: QAVVTQPRSVSGSPGQAVTISCTGTSSDVGGYNYVSWYQHHPGKAPKLIIYDVTKRPSGVPDRFSGSKSGNTASLTISGLQTEYEADYYCCSYAGSYTLVFGGGTKLTVLG",Response Shift,[28],-0.001 nm
same,Response Shift,[29],-0.02 nm
same,Response Shift,[30],0.009 nm
same,Response Shift,[31],-0.039 nm
same,Response Shift,[32],-0.016 nm
same,Response Shift,[33],0.489 nm
same,Response Shift,[34],-0.042 nm
same,Response Shift,[35],-0.052 nm
same,Response Shift,[36],-0.046 nm
same,Response Shift,[37],-0.055 nm
same,Response Shift,[38],-0.073 nm
